Legend:
[1] = biological target: T1, Siglec-9-Fc (R&D Systems, catalog number 1139-SL-050) (human, UniProt Q9Y336 18-348); assay: FACS ligand competition: 25 ug/ml mAb pre-coupled with 25 ug/ml Siglec-9-Fc, binding to sialic acid ligands on U937 cells, anti-human IgG-PE
T1 construct: Bought fusion protein; also called Siglec-9-Fc fusion protein; not shown: human IgG1 Fc
Method: To determine whether Siglec-9 antibodies block binding to sialic acid ligands, U937 cells, which robustly express sialic acid ligands that predominantly bind to Siglec-9, were utilized in a FACS-based protocol. Briefly, 25 μg/ml Siglec-9 antibodies were pre-coupled with 25 μg/ml Siglec-9-Fc (R&D Systems, catalog number 1139-SL-050) for 20 minutes on ice in binding buffer (PBS with 0.25% BSA and 1 mM CaCl₂) in 96-well round bottom plates. […] Cells were pelleted and resuspended in goat anti-human IgG-PE (SouthernBiotech catalog number 2040-09) secondary antibody at 1:2000 dilution in binding buffer for 30 minutes. Cells were then washed three times and analyzed by flow cytometry on a BD FACS Canto. Data were analyzed on FlowJo version 10.0.6 (TreeStar).

[2] = biological target: T2, human Siglec-9 expressed on human cells (human, UniProt Q9Y336 18-463); assay: cell-based or functional assay
T2 sequence (Q9Y336 18-463): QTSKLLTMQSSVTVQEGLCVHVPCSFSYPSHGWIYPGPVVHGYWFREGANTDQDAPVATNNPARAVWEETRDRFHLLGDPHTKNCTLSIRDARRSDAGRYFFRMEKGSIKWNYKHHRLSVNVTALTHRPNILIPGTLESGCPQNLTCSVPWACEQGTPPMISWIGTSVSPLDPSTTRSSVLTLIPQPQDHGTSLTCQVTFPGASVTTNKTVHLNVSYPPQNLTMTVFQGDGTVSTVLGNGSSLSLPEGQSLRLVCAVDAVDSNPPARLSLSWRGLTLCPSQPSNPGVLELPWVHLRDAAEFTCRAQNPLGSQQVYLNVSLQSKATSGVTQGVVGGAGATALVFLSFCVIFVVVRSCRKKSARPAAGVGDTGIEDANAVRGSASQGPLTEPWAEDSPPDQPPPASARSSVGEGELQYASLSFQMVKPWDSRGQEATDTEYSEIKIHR

[3] = biological target: T2, human Siglec-9 expressed on human cells; assay: cell-based or functional assay; remark: listed apart in the source
[4] = biological target: T2, human Siglec-9 expressed on human cells; assay: flow cytometry on human primary dendritic cells, 10 ug/ml mAb, PE secondary
Method: (§1) Initial characterization of Siglec-9 antibodies involved determining their ability to bind Siglec-9 expressed on human primary monocytes, human primary macrophages, human primary dendritic cells, human primary neutrophils, and human primary natural killer (NK) cells. Cells were harvested, plated at 10⁶/ml in a 96 well plate, and incubated in 100ul PBS containing 2% FBS, 2 mM EDTA and 10 μg/ml Mab and Fc blocking reagent for 1 hour in ice. Cells were washed twice and incubated in 100ul PBS containing 2% FBS, 2 mM EDTA and 5 μg/ml PE-conjugated secondary antibody for 30 minutes on ice. Cells were washed twice in cold PBS and analyze by flow cytometry on a BD FACS Canto. Data analysis and calculation of MFI values was performed with FlowJo (TreeStar) software version 10.0.7.
(§2) Binding is compared to an isotype control. […] In Table 5, “Buffer” refers to cells that were treated only with the PBS buffer described supra; “Secondary Ab” refers to cells that were treated only with the PE-conjugated secondary antibody; and “mIgG1,” “mIgG2a,” and “mIgG2b” refer to isotype control antibodies.

[5] = biological target: T3, Histidine-tagged human Siglec-9 (NovoProtein) (human, UniProt Q9Y336 18-348); assay: SPR Biacore T200, 25 C, 25 nM mAb captured on anti-mouse IgG CM5 chip, His-tagged Siglec-9 200 nM as analyte, single-concentration 1:1 fit
T3 construct: Bought protein; also called Siglec-9-his tagged protein; His-tagged Siglec 9 antigen; not shown: histidine tag
T3 sequence (Q9Y336 18-348 limits assumed): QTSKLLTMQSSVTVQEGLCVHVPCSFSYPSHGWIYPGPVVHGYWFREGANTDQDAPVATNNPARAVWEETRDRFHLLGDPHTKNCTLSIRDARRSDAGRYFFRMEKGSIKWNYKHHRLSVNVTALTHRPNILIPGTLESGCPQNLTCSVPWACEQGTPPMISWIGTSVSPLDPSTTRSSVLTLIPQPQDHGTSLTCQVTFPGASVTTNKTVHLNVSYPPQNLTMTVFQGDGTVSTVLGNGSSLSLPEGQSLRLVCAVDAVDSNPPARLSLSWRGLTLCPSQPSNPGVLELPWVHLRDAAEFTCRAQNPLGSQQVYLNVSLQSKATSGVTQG

[6] = biological target: T2, human Siglec-9 expressed on human cells; assay: flow cytometry on human primary monocytes, 10 ug/ml mAb, PE secondary
Method: as §1, §2

[7] = biological target: T2, human Siglec-9 expressed on human cells; assay: flow cytometry on human primary macrophages, 10 ug/ml mAb, PE secondary
Method: as §1, §2

[8] = biological target: T3, Histidine-tagged human Siglec-9 …; assay: SPR Biacore T200, 25 C, 25 nM mAb captured on anti-mouse IgG CM5 chip, His-tagged Siglec-9 100 nM as analyte, single-concentration 1:1 fit
Method: Affinity constants (KD) were calculated from the ratio kd/kₐ.

[9] = biological target: T3, Histidine-tagged human Siglec-9 …; assay: BLI ForteBio Octet RED96, mAb on AMC tips, His-tagged Siglec-9 3.13-50 nM; assay 1; column head prints nM but kd/ka gives M
Method: (§3) Antibodies were captured on anti-mouse IgG Fc capture (AMC) biosensor tips, after which a baseline was run for 60 seconds. A 15 minute association step was performed in a dilution series of His-tagged Siglec 9 antigen, ranging from 3.13 nM to 50 nM, after which dissociation was measured over 60 minutes. Affinity constants (KD) were calculated from the ratio kd/kₐ.

[10] = biological target: T3, Histidine-tagged human Siglec-9 …; assay: BLI ForteBio Octet RED96, mAb on AMC tips, His-tagged Siglec-9 3.13-50 nM; average of two assays
Method: as §3

[11] = biological target: T3, Histidine-tagged human Siglec-9 …; assay: BLI ForteBio Octet RED96, mAb on AMC tips, His-tagged Siglec-9 3.13-50 nM; assay 2; column head prints nM but kd/ka gives M
Method: as §3

T1 sequence (Q9Y336 18-348 limits assumed): as above

| Binder | Percent Siglec-9-Fc Binding [1] [%] | Percent Siglec-9 Surface Expression, DCs (% Siglec-9) [2] [%] | Percent Siglec-9 Surface Expression, Monocytes (% Siglec-9) [2] [%] | Percent Siglec-9 Surface Expression, THP-1 cells (% Siglec-9) [2] [%] | Percent Siglec-9 Surface Expression, Macrophages (% Siglec-9) [3] [%] | Percent Siglec-9 Surface Expression, Microglia (% Siglec-9) [3] [%] | % Positive [4] [%] | MFI [4] | Kd [5] [nM] | % Positive [6] [%] | MFI [6] | % Positive [7] [%] | MFI [7] | Kd [8] [nM] | Kd [9] [nM] | Kd [10] [nM] | Kd [11] [nM] |
| --- | --- | --- | --- | --- | --- | --- | --- | --- | --- | --- | --- | --- | --- | --- | --- | --- | --- |
| anti-Siglec-9 antibody 5B1 (antibody, IgG1, V domains shown) VH: QVQLQQSGAEVVKPGASVKLSCKAFGYTFTSYWMHWVKQRPGQGLEWIGEINPRDGVSNCNEKFTSKATLTVDTSSNTAYMQLNNLTSEDSAVYYCTIWEDYFDYWGQGTTLTVST VL: NVVMTQTPLTLSVTLGQPASISCKSSQSLLYTNGKTYLNWLLQRPGQSPKLLIYLVSKLESGVPDRFSGSGSGTDFTLKINRVEAEDLGVYYCLQATHFPLTFGAGTKLELK | 97.8 | 39.2 | 31.2 | 61.6 | 24.8 | 27.5 | 97.8 | 646 | – | 75.9 | 310 | 98.7 | 621 | 2.7 | – | – | – |
| anti-Siglec-9 antibody 2D5 (antibody, IgG1, V domains shown) VH: QVQLQQSGPELVKPGASVKISCKASGYAFSSYWMNWVKQRPGKGLEWIGRIYPRDGDTNYNGKFKGKATLTADKSSSTAYMQLSSLTSEDSAVYFCARWLLRFAYWGQGTLVTVSA VL: not shown | 97.8 | 94.3 | 84.4 | 81.1 | 94.6 | 90.6 | 34.2 | 252 | – | 9.1 | 145 | 93.2 | 692 | 5.1 | – | – | – |
| anti-Siglec-9 antibody 5C6 (antibody, V domains shown, Murine antibody; also called S9-5C6; S9-5C6.3) VH: EVQLQQSGPELVKPGASVRISCKASGYTFTDYNIHWVKQSQGKSLEWIGYIYPYNGDTGYNQKFQNKATLTVDNSSSTAYMELRSLTSEDSAVYYCANGNYLYYYAMDYWGQGTSVTVSS VL: DVVMTQTPLSLPVSLGDQVSISCSSSQSLVHSNGNTYLHWYLQKSGQSPKLLIYKVSNRFSGVPDRFRGSGSGTDFTLKISRVEAEDLGVYFCSQNTHVPLTFGAGTKLELK | – | – | – | – | – | – | – | – | – | – | – | – | – | – | 0.532 | 0.54 | 0.557 |

More lines, now with the values ahead:

| Percent Siglec-9-Fc Binding [1] [%] | Percent Siglec-9 Surface Expression, DCs (% Siglec-9) [2] [%] | Percent Siglec-9 Surface Expression, Monocytes (% Siglec-9) [2] [%] | Percent Siglec-9 Surface Expression, THP-1 cells (% Siglec-9) [2] [%] | Percent Siglec-9 Surface Expression, Macrophages (% Siglec-9) [3] [%] | Percent Siglec-9 Surface Expression, Microglia (% Siglec-9) [3] [%] | % Positive [4] [%] | MFI [4] | Kd [5] [nM] | % Positive [6] [%] | MFI [6] | % Positive [7] [%] | MFI [7] | Kd [8] [nM] | Kd [9] [nM] | Kd [10] [nM] | Kd [11] [nM] | Binder |
| --- | --- | --- | --- | --- | --- | --- | --- | --- | --- | --- | --- | --- | --- | --- | --- | --- | --- |
| 97.8 | 66.2 | 48.4 | 68.9 | 34.2 | 54.7 | 60.5 | 331 | 9 | 38.3 | 216 | 94.8 | 467 | – | – | – | – | anti-Siglec-9 antibody 7H12 (antibody, V domains shown, the asterisk is not explained; the printed VL holds a 'Z' at position 3) VH: QVQLQQSGAEVVKPGASVKLSCKAFGYTFTSYWMHWVKQRPGQGLEWIGEINPRDGVSNCNEKFTSKATLTVDTSSNTAYMQLNNLTSEDSAVYYCTIWEDYFDYWGQGTTLTVST VL: NVZMTQTPLTLSVTLGQPASISCKSSQSLLYTNGKTYLNWLLQRPGQSPKLLIYLVSKLESGVPDRFSGSGSGTDFTLKINRVEAEDLGVYFCLQAPHFPLTFGGGTKLEMK |
| – | – | – | – | – | – | – | – | – | – | – | – | – | – | 0.639 | 0.76 | 0.879 | anti-Siglec-9 antibody 12B12 (antibody, V domains shown, Murine antibody; also called S9-12B12; S9-12B12.2) VH: EVQLVESGGGLVQPGGSLKLSCAASGFTFSNYGMSWVRQILDKRLELVATINSNGGRTYYPDSVKGRFTISRDNAKNTLYLQMSSLRSEDTAIYYCVTYYRYDSYAMDYWGQGTSVTVSS VL: DIVLTQSPASLAVSLGQRATISCRASENVDSYGISFMHWYQQKPGQPPKLLIYRASNLESGIPARFSGSGSRTDFTLTINPVEADDVATYYCQQSNEDPWTFGGGTKLEIK |

Reference: US20190062427A1 (Alector, published 2019)
